B1: 159 (protein)
chain: MGHHHHHHGGSVSDVPRDLEVVAATPTSLLISWEYKVHPYRYYRITYGETGGNSPVQEFTVPSVLSTATISGLKPGVDYTITVYAVTYGDDSAPISIPYRTPGG
modifications: Adnectin
B2: 165 (protein)
chain: MGHHHHHHGGSVSDVPRDLEVVAATPTSLLISWEYKVNPYRYYRITYGETGGNSPVQEFTVPSVLSTATISGLKPGVDYTITVYAVTYGVHSSPISINYRTEID
modifications: Adnectin
B3: 179 (protein)
chain: MGHHHHHHGGSVSDVPRDLEVVAATPTSLLISWEYKVHPYRYYRITYGETGGNSPVQEFTVPSVLSTATISGLKPGVDYTITVYAVTYGDDSRPISINYRTEID
modifications: Adnectin
B4: 180 (protein)
chain: MGHHHHHHGGSVSDVPRDLEVVAATPTSLLISWEYKVHPYRYYRITYGETGGNSPVQEFTVPSVLSTATISGLKPGVDYTITVYAVTYGKDSAPISINYRTEID
modifications: Adnectin
B5: 184 (protein)
chain: MGHHHHHHGGSVSDVPRDLEVVAATPTSLLISWEYKVHPYRYYRITYGETGGNSPVQEFTVPSVLSTATISGLKPGVDYTITVYAVTYGDVSAPISINYRTEID
modifications: Adnectin
B6: 181 (protein)
chain: MGHHHHHHGGSVSDVPRDLEVVAATPTSLLISWEYKVHPYRYYRITYGETGGNSPVQEFTVPSVLSTATISGLKPGVDYTITVYAVTYGDHSAPISINYRTEID
modifications: Adnectin
B7: 182 (protein)
chain: MGHHHHHHGGSVSDVPRDLEVVAATPTSLLISWEYKVHPYRYYRITYGETGGNSPVQEFTVPSVLSTATISGLKPGVDYTITVYAVTYGDQSAPISINYRTEID
modifications: Adnectin
B8: 175 (protein)
chain: MGHHHHHHGGSVSDVPRDLEVVAATPTSLLISWEYKVHYDRYYRITYGETGGNSPVQEFTVPSVLSTATISGLKPGVDYTITVYAVTYGVQSTPISINYRTEID
modifications: Adnectin
B9: 174 (protein)
chain: MGHHHHHHGGSVSDVPRDLEVVAATPTSLLISWEYNVNAYRYYRITYGETGGNSPVQEFTVPSVLSTATISGLKPGVDYTITVYAVTYGIISEPISINYRTEID
modifications: Adnectin
B10: 168 (protein)
chain: MGHHHHHHGGSVSDVPRDLEVVAATPTSLLISWEYKVNAYRYYRITYGETGGNSPVQEFTVPSVLSTATISGLKPGVDYTITVYAVTYGVLSPPISINYRTEID
modifications: Adnectin
B11: 177 (protein)
chain: MGHHHHHHGGSVSDVPRDLEVVAATPTSLLISWEYKVHPYRYYRITYGETGGNSPVQEFTVPSVLSTATISGLKPGVDYTITVYAVTYGDDSAPISIPYRTPGG
modifications: Adnectin
B12: 171 (protein)
chain: MGHHHHHHGGSVSDVPRDLEVVAATPTSLLISWKYQVHAYRYYRITYGETGGNSPVQEFTVPSVLSTATISGLKPGVDYTITVYAVTYGIISEPISINYRTEID
modifications: Adnectin
B13: 167 (protein)
chain: MGHHHHHHGGSVSDVPRDLEVVAATPTSLLISWEYRVNPYRYYRITYGETGGNSPVQEFTVPSVLSTATISGLKPGVDYTITVYAVTYGVQSPPISINYRTEID
modifications: Adnectin
B14: 166 (protein)
chain: MGHHHHHHGGSVSDVPRDLEVVAATPTSLLISWKYNLHPYRYYRITYGETGGNSPVQEFTVPSVLSTATISGLKPGVDYTITVYAVTYGIISEPISINYRTEID
modifications: Adnectin
B15: 169 (protein)
chain: MGHHHHHHGGSVSDVPRDLEVVAATPTSLLISWEYNVNPYRYYRITYGETGGNSPVQEFTVPSVLSTATISGLKPGVDYTITVYAVTRGVDSAPISINYRTEID
modifications: Adnectin
B16: 183 (protein)
chain: MGHHHHHHGGSVSDVPRDLEVVAATPTSLLISWEYKVHPYRYYRITYGETGGNSPVQEFTVPSVLSTATISGLKPGVDYTITVYAVTYGIDSAPISINYRTEID
modifications: Adnectin
B17: 163 (protein)
chain: MGHHHHHHGGSVSDVPRYLEVVAATPTSLLISWQYKVHPYRWYRITYGETGGNSPVQEFTVPSVLSTATISGLKPGVDYTITVYAVTYGVNSIPISINYRTEID
modifications: Adnectin
B18: 164 (protein)
chain: MGHHHHHHGGSVSDVPRDLEVVAATPTSLLISWKYQVHAYRYYRITYGETGGNSPVQEFTVPSVLSTATISGLKPGVDYTITVYAVTYGVYSAPISINYRTEID
modifications: Adnectin
B19: 173 (protein)
chain: MGHHHHHHGGAVSDVPRDLEVVAATPTSLLISWEYKVNPWRYYRITYGETGGNSPVQEFTVPSVLSTATISGLKPGVDYTITVYAVTYGVHSSPISINYRTEID
modifications: Adnectin
B20: 186 (protein)
chain: MGHHHHHHGGSVSDVPRDLEVVAATPTSLLISWEYKVHPYRYYRITYGETGGNSPVQEFTVPSVLSTATISGLKPGVDYTITVYAVTYGEDSAPISINYRTEID
modifications: Adnectin
B21: 170 (protein)
chain: MGHHHHHHGGSVSDVPRDLEVVAATPTSLLISWEYKVSPYRYYRITYGETGGNSPVQEFTVPSVLSTATISGLKPGVDYTITVYAVTFGIRSSPISINYRTEID
modifications: Adnectin
B22: 162 (protein)
chain: MGHHHHHHGGSVSDVPRDLEVVAATPTSLLISWEYKVHPYRYYRITYGETGGNSPVQEFTVPSVLSSAQISGLKPGVDYTITVYAVTYGDDSAPISINYRTEID
modifications: Adnectin
B23: 161 (protein)
chain: MGHHHHHHGGSVSDVPRDLEVVAATPTSLLISWEYKVHPYRYYRITYGETGGNSPVQEFTVPSVLSSAEISGLKPGVDYTITVYAVTYGDDSAPISINYRTEID
modifications: Adnectin
B24: 176 (protein)
chain: MGHHHHHHGGSVSDVPRDLEVVAATPTSLLISWEYKVHHDRYYRITYGETGGNSPVQEFTVPSVLSTATISGLKPGVDYTITVYAVTYGIESSPISINYRTEID
modifications: Adnectin
B25: 172 (protein)
chain: MGHHHHHHGGSVSDVPRDLEVVAATPTSLLISWEYKVDPYRYYRITYGETGGNSPVQEFTVPSVLSTATISGLKPGVDYTITVYAVTYGIDSSPISINYRTEID
modifications: Adnectin
B26: 120 (protein)
chain: MGHHHHHHGGVSDVPRDLEVVAATPTSLLISWEYNVNPYRYYRITYGETGGNSPVQEFTVPSVLSSAQISGLKPGVDYTITVYAVTRGVDSAPISINYRTPGG
modifications: Adnectin
B27: 119 (protein)
chain: MGVSDVPRDLEVVAATPTSLLISWDAPAVTVGWYHIGYNVEGEPASYQYFRVPGSKSTATISGLKPGVEYMIFVNAVTGSGAREEFSLPISINYRTEGSGSHHHHHH
modifications: Adnectin
B28: 157 (protein)
chain: MGVSDVPRDLEVVAATPTSLLISWQYKVHPYRYYRITYGETGGNSPVQEFTVPSVLSTATISGLKPGVDYTITVYAVTYGVNSIPISINYRTEIDKPSQHHHHHH
modifications: Adnectin
B29: 158 (protein)
chain: MGVSDVPRDLEVVAATPTSLLISWEYKVHYDRYYRITYGETGGNSPVQEFTVPSVLSTATISGLKPGVDYTITVYAVTYGIQSPPISINYRTEIDKPSQHHHHHH
modifications: Adnectin
B30: 160 (protein)
chain: MGVSDVPRDLEVVAATPTSLLISWEYKVDPYRYYRITYGETGGNSPVQEFTVPSVLSTATISGLKPGVDYTITVYAVTYGVESSPISINYRTEIDKPSQHHHHHH
modifications: Adnectin
B31: 118 (protein)
chain: MGVSDVPRDLEVVAATPTSLLISWKYKVHPYRYYRITYGETGGNSPVQEFTVPSVLSTATISGLKPGVDYTITVYAVTYGVNSLPISINYRTEIDKPSQHHHHHH
modifications: Adnectin

test system: NL-Rluc virus; experiment: Combinectin potency assay: antiviral EC50, NL-Rluc virus in MT-2 cells, luciferase readout; assay type: cell-based, HIV-1; conditions: Anti-N17 Adnectin, Table 3
Procedure: MT-2 cells, HEK 293T cells and the proviral DNA clone of […] were obtained from the NIH AIDS Research and Reference Reagent Program. MT-2 cells were propagated in RPMI 1640 medium supplemented with 10% heat-inactivated fetal bovine serum (FBS), 10 mM HEPES buffer pH 7.55, and 2 mM L-glutamine. HEK 293T cells were propagated in DMEM media supplemented with 10% heat-inactivated FBS, 10 mM HEPES buffer pH 7.55 and 2 mM L-glutamine. Recombinant NL-Rluc virus, in which a section of the nef gene from the proviral clone of NL4-3 was replaced with the Renilla luciferase gene, was constructed at Bristol-Myers Squibb. The replication-competent virus was harvested 3 days after transfection of HEK 293T cells with the modified pNL-Rluc proviral clone. Transfections were performed using Lipofectamine Plus (Invitrogen, Carlsbad, Calif.), according to manufacturer's instruction. Virus was titered in MT-2 cells using luciferase enzyme activity as a biomarker. The NL-Rluc virus used to infect MT-2 cells a multiplicity of 0.01 for 1 hour before adding to the peptides in 96-well plates. Peptides were serially diluted three-fold and 11 concentrations were plated in triplicate. After 4-5 days of incubation, cells were processed and quantitated for virus growth by the amount of expressed luciferase. Luciferase was quantitated using the Dual Luciferase kit from Promega (Madison, Wis.), with modifications to the manufacturer's protocol. The diluted Passive Lysis solution was pre-mixed with the re-suspended Luciferase Assay Reagent and then re-suspended in STOP & GLO® Substrate (2:1:1 ratio). A total of […] of the mixture was added to each aspirated well on assay plates and luciferase activity was measured immediately on a Wallac TriLux (Perkin-Elmer, Waltham, Mass.). The 50% effective concentration (EC50) was calculated by comparing the amount of luciferase produced in the presence of inhibitory peptide compared to wells where no peptide was added.

First: B1
Second: B2
The EC50 of the first is 1.8-fold lower: 23 nM for the first, 42 nM for the second. The first is the more potent here.

B3 and B4 cannot be ordered by EC50: greater than 1000 nM for the first, greater than 1000 nM for the second.

First: B5
Second: B6
The EC50 of the first is 32-fold lower: 20 nM for the first, 631 nM for the second. The first is the more potent here.

Compared with B7, B8 is lower in EC50: greater than 1000 nM for the first, 5 nM for the second.

Going from B9 to B10, the EC50 rises from 5 nM to 42 nM (8.4-fold). The first is the more potent here.

Going from B11 to B12, the EC50 falls from 252 nM to 35 nM (7.2-fold).

B13 and B14 are within 1.5-fold of each other in EC50: 42 nM for the first, 50 nM for the second.

Going from B15 to B16, the EC50 rises from 5 nM to 20 nM (4-fold).

B17 and B18 are the same in EC50: 35 nM for the first, 35 nM for the second.

First: B19
Second: B20
The EC50 of the first is 570-fold lower: 5 nM for the first, 2830 nM for the second.

Compared with B21, B22 is 7-fold higher in EC50: 5 nM for the first, 35 nM for the second. The first is the more potent here.

Going from B23 to B24, the EC50 rises from 13 nM to greater than 1000 nM.

Compared with B25, B26 is 7.8-fold higher in EC50: 5 nM for the first, 39 nM for the second. The first is the more potent here.

Compared with B27, B28 is lower in EC50: greater than 1000 nM for the first, 43 nM for the second.

B29 and B30 are within 1.5-fold of each other in EC50: 85 nM for the first, 58 nM for the second.

In the case of B31, the EC50 is reported as 28 nM.
